Measured values from patent US20260176653A1 (TRUSTEES OF BOSTON UNIVERSITY, published 2026).
Ends that are not written are not given here.

T1: HCV protease NS3 from genotype 1B (NS4A/NS3, fused to the C-terminus of ADAR2-DD) (Hepatitis C virus genotype 1B, UniProt Q9WMX2 1029-1206)
T1 chain: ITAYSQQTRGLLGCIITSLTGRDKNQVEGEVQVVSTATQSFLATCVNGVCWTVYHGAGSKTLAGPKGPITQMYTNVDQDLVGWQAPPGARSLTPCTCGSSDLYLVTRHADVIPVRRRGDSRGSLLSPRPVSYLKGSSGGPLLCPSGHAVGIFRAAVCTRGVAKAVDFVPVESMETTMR


Tests used:
Assay in all cases: cell-based or functional assay
[1] = biological target: EGFP(R96M)-AlfaTag fusion protein (non-fluorescent EGFP carrying the ALFA tag)
[2] = biological target: Bcl-xL (human, fused to the C-terminus of ADAR2-DD) (human, UniProt Q07817 4-198)
[3] = biological target: T1, HCV protease NS3 from genotype 1B …

Binder | median relative fluorescence, flow cytometry: A-1331852 plus EGFP(R96M)-AlfaTag against A-1331852 alone (the effect of adding the antigen) [1] [fold] | Fold Change (1 µM over 0 µM A-1331852) [2] [fold] | median ratio of mNeonGreen to mCherry, flow cytometry, 0 µM A-1331852 (background) [2] | median ratio of mNeonGreen to mCherry, flow cytometry, 1 µM A-1331852 [2] | ratio of mNeonGreen to mCherry, 2 µM grazoprevir against no drug, HEK cells, imaging (fusion SEQ ID NO 169) [3] [fold]
ALFA-Bcl dual input iADAR (BAD peptide at the N-terminus of ADAR2-DD(F697Y), ALFA-PE at the 5' RNA binding site, AlfaNb and Bcl-xL in tandem at the C-terminus) (other) MASNFTQFVLVDNGGTGDVTVAPSNFANGIAEWISSNSRSQAYKVTCSVRQSSAQNRKYTIKVEVPKGAWRSYLNMELTIPIFATNSDCELIVKAMQGLLKDGNPIPSAIAANSGIYGGSGSGAGSGSPAGGGAPGSGGGSTGAPPNLWAAQRYGRELRRMSDEFVDSFKKASQLHLPQVLADAVSRLVLGKFGDLTDNFSSPHARRKVLAGVVMTTGTDVKDAKVISVSTGTKCINGEYMSDRGLALNDCHAEIISRRSLLRFLYTQLELYLNNKDDQKRSIFQKSERGGFRLKENVQFHLYISTSPCGDARIFSPHEPILEEPAASGSGPGRLEEELRRRLSPGTGDRHPNRKARGQLRTKIESGQGTIPVRSNASIQTWDGVLQGERLLTMSCSDKIARWNVVGIQGSLLSIFVEPIYFSSIILGSLYHGDHLSRAMYQRISNIEDLPPLYTLNKPLLSGISNAEARQPGKAPNFSVNWTVGDSAIEVINATTGKDELGRASRLCKHALYCRWMRVHGKVPSHLLRSKITKPNVYHESKLAAKEYQAAKARLFTAFIKAGLGAWVEKPTEQDQYSLTGSGGTAEVQLQESGGGLVQPGGSLRLSCTASGVTISALNAMAMGWYRQAPGERRVMVAAVSERGNAMYRESVQGRFTVTRDFTNKMVSLQMDNLKPEDTAVYYCHVLEDRVDSFHDYWGQGTQVTVSSGAGSGASSNRELVVDFLSYKLSQKGYSWSQFSDVEENRTEAPEGTESEMETPSAINGNPSWHLADSPAVNGATGHSSSLDAREVIPMAAVKQALREAGDEFELRYRRAFSDLTSQLHITPGTAYQSFEQVVNELFRDGVNWGRIVAFFSFGGALCVESVDKEMQVLVSRIAAWMATYLNDHLEPWIQENGGWDTFVELYGNNGSSELIKENMHMKLYMEGTVDNHHFKCTSEGEGKPYEGTQTMRIKVVEGGPLPFAFDILATSFLYGSKTFINHTQGIPDFFKQSFPEGFTWERVTTYEDGGVLTATQDTSLQDGCLIYNVKIRGVNFTSNGPVMQKKTLGWEAFTETLYPADGGLEGRNDMALKLVGGSHLIANIKTTYRSKKPAKNLKMPGVYYVDYRLERIKEANNETYVEQHEVAVARYCDLPSKLGHKLN | ~10 |  |  |  | 
ASGSGTGAPPNLWAAQRYGRELRRMSDEVV (not fully specified) [BAD(V) peptide (Bad point mutant F121V, inserted at the 5' RNA binding loop of ADAR2-DD)] |  | 14.4 | 0.0708 | 1.02 | 
ASGSGTGAPPNLWAAQRYGRELRRMSDEFV (not fully specified (N-terminus, C-terminus); also: part of an expressed fusion protein) [Bad(F) peptide (BH3 peptide Bad with its linker, as inserted at the 5' RNA binding loop of ADAR2-DD)] |  | 37 | 0.026 | 0.962 | 
GELDELVYLLDGPGYDPIHCDVVTRGGSHLFNF [CP5-46-4D5E peptide (NS3 binding peptide, inserted at the 5' RNA binding loop of ADAR2-DD)] |  |  |  |  | ~18
ASGSGTGAPPNLWAAQRYGRELRRMSDELV (not fully specified (N-terminus, C-terminus); also: part of an expressed fusion protein) [Bad(L) peptide (Bad point mutant F121L, inserted at the 5' RNA binding loop of ADAR2-DD)] |  | 23.2 | 0.0389 | 0.903 | 
ASGSGTGAPPNLWAAQRYGRELRRMSDEGV (not fully specified) |  | 9.65 | 0.1 | 0.968 | 
